# Measured values reported in US20140148501, “DNA APTAMERS FOR PROMOTING REMYELINATION” (MAYO FOUNDATION FOR MEDICAL EDUCATION AND RESEARCH, published 2014).
# T1: Proteolipid protein PLP (12.5 kDa band) (Mus musculus, UniProt P60202 P60202:2-277)
# T1 sequence: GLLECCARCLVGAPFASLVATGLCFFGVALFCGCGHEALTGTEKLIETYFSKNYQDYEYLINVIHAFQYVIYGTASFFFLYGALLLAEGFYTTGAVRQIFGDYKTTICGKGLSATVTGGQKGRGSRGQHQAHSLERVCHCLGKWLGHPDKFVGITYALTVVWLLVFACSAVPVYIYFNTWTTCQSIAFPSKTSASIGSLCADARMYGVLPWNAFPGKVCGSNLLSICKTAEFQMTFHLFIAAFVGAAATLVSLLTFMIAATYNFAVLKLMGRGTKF
# T2: Myelin oligodendrocyte glycoprotein MOG (23.8 kDa band) (Mus musculus, UniProt Q61885 Q61885:29-246)
# T2 sequence: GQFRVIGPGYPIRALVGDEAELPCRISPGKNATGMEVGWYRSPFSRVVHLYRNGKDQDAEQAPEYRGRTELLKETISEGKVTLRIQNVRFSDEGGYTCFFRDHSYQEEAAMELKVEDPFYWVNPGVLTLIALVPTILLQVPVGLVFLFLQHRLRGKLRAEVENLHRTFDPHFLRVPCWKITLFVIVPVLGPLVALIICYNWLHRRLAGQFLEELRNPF
# Key:
# [1] = target: T3, Myelin basic protein isoforms containing exon 2-encoded sequence (17 kDa and 21.5 kDa) (Mus musculus, UniProt P04370-4 P04370-4:2-195); assay: southwestern blot; 17 and 21.5 kDa bands bound only by 3064; conditions: tags: none; from crude SJL mouse CNS myelin, SDS-PAGE separated and blotted to PVDF; label: 5'-fluorescein; putative intramolecular G4
# Description: (§1) To promote intramolecular folding, aptamer stock solutions (5 μM) in PBS were heated to 90° C., MgCl₂ was added to a final concentration of 1 mM, and solutions were allowed to cool room temperature. Myelin stock was diluted in PBS and sonicated on ice. Fluorescent folded aptamers were added to different amounts of myelin suspension and incubated at 37° C. for 3 hours. Insoluble material with bound aptamers was recovered by centrifugation for 30 seconds in a microcentrifuge. The pellet was washed with 100 μL PBS and again recovered by centrifugation. After phenol extraction and ethanol precipitation, fluorescent aptamers were quantitated in black plastic 96-well plates using a Typhoon Fluorescent Imaging system (GE Healthcare Biosciences; Piscataway, N.J.). For Southwestern blotting, 15 μg crude myelin protein was separated in each lane of a 10% Bis-Tris SDS polyacrylamide gel in 2-(N-morpholino)ethanesulfonic acid (MES) buffer. […] Fluorescein fluorescence was then detected on membranes using the Typhoon Fluorescent Imaging system. […]
# (§2) The specificity of anti-myelin DNA aptamer 3064 and controls 3060 and 3202 was analyzed by assessing the binding of fluorescent aptamers to crude myelin protein suspension using centrifugal sedimentation to recover bound aptamers (FIG. 5A).
# [2] = target: T1, Proteolipid protein PLP (12.5 kDa band); assay: southwestern blot; control selected for chelated Ni; conditions: tags: none; from crude SJL mouse CNS myelin, SDS-PAGE separated and blotted to PVDF; label: 5'-fluorescein; putative intramolecular G4
# Description: (§3) After electrophoresis, duplicate lanes were either stained with Coomassie blue dye or transferred to polyvinylidene fluoride (PVDF) membrane by electroblotting. Western blotting was performed by standard methods using antibodies with the indicated specificities. For southwestern blots, membranes were blocked for 30 minutes at 37° C. in tris-buffered saline and TWEEN® 20 (TBST) buffer containing with 1% bovine serum albumin (BSA), 10% non-fat dry milk, 2 mg/mL sonicated and heat-denatured salmon testis DNA, and TWEEN® 20 detergent. Folded fluorescent aptamers (5 μM final concentration) were then added in PBS containing 1 mM MgCl₂ and incubated with PVDF membranes for 14 hours, followed by washing in TBST buffer and then in 0.5× tris/borate/EDTA (TBE) buffer. Fluorescein fluorescence was then detected on membranes using the Typhoon Fluorescent Imaging system. Tryptic peptide mass fingerprinting was performed.
# (§4) The specificity of anti-myelin DNA aptamer 3064 and controls 3060 and 3202 was analyzed by assessing the binding of fluorescent aptamers to crude myelin protein suspension using centrifugal sedimentation to recover bound aptamers (FIG. 5A). […] To further assess specificity, crude myelin proteins were separated by SDS-polyacrylamide gel electrophoresis and stained with Coomassie dye (myelin; FIG. 5B, left lane), or blotted to polyvinylidene (PVDF) membrane and probed with antibodies against myelin basic protein (MBP), proteolipid protein (PLP), or MOG in western blots (FIG. 5B, lanes 2-4), or probed with fluorescent aptamers 3202, 3060 or 3064 in southwestern blots (FIG. 5B, lanes 5-7). […] In particular, control aptamer 3060 and myelin-specific aptamer 3064 both bound to three myelin proteins with apparent molecular weights of 12.5 kDa, 18.5 kDa, and 23.8 kDa. Based on western analysis and mass spectrometry of tryptic peptides, these proteins were PLP, the 18.5 kDa isoform of MBP, and MOG, respectively.
# [3] = target: T2, Myelin oligodendrocyte glycoprotein MOG …; assay: as above; conditions: tags: none; from crude SJL mouse CNS myelin, SDS-PAGE separated and blotted to PVDF; label: 5'-fluorescein; putative intramolecular G4
# Description: as §3, §4
# [4] = target: T4, Myelin basic protein 18.5 kDa isoform (Mus musculus, UniProt P04370-5 P04370-5:2-169); assay: as above; conditions: tags: none; from crude SJL mouse CNS myelin, SDS-PAGE separated and blotted to PVDF; label: 5'-fluorescein; putative intramolecular G4
# Description: as §3, §4
# [5] = target: T3, Myelin basic protein isoforms …; assay: southwestern blot; unique to 3064; 5 uM aptamer, PBS, 1 mM MgCl2, 14 h; conditions: tags: none; from crude SJL mouse CNS myelin, SDS-PAGE separated and blotted to PVDF; label: 5'-fluorescein; putative intramolecular G4
# Description: as §1, §2
# [6] = target: T1, Proteolipid protein PLP (12.5 kDa band); assay: southwestern blot; 5 uM aptamer, PBS, 1 mM MgCl2; conditions: tags: none; from crude SJL mouse CNS myelin, SDS-PAGE separated and blotted to PVDF; label: 5'-fluorescein; putative intramolecular G4
# Description: (§5) To promote intramolecular folding, aptamer stock solutions (5 μM) in PBS were heated to 90° C., MgCl₂ was added to a final concentration of 1 mM, and solutions were allowed to cool room temperature. Myelin stock was diluted in PBS and sonicated on ice. Fluorescent folded aptamers were added to different amounts of myelin suspension and incubated at 37° C. for 3 hours. Insoluble material with bound aptamers was recovered by centrifugation for 30 seconds in a microcentrifuge. The pellet was washed with 100 μL PBS and again recovered by centrifugation. After phenol extraction and ethanol precipitation, fluorescent aptamers were quantitated in black plastic 96-well plates using a Typhoon Fluorescent Imaging system (GE Healthcare Biosciences; Piscataway, N.J.). For Southwestern blotting, 15 μg crude myelin protein was separated in each lane of a 10% Bis-Tris SDS polyacrylamide gel in 2-(N-morpholino)ethanesulfonic acid (MES) buffer. After electrophoresis, duplicate lanes were either stained with Coomassie blue dye or transferred to polyvinylidene fluoride (PVDF) membrane by electroblotting. Western blotting was performed by standard methods using antibodies with the indicated specificities. For southwestern blots, membranes were blocked for 30 minutes at 37° C. in tris-buffered saline and TWEEN® 20 (TBST) buffer containing with 1% bovine serum albumin (BSA), 10% non-fat dry milk, 2 mg/mL sonicated and heat-denatured salmon testis DNA, and TWEEN® 20 detergent. Folded fluorescent aptamers (5 μM final concentration) were then added in PBS containing 1 mM MgCl₂ and incubated with PVDF membranes for 14 hours, followed by washing in TBST buffer and then in 0.5× tris/borate/EDTA (TBE) buffer. Fluorescein fluorescence was then detected on membranes using the Typhoon Fluorescent Imaging system. Tryptic peptide mass fingerprinting was performed.
# as §2
# [7] = target: T2, Myelin oligodendrocyte glycoprotein MOG …; assay: southwestern blot; 5 uM aptamer, PBS, 1 mM MgCl2; conditions: tags: none; from crude SJL mouse CNS myelin, SDS-PAGE separated and blotted to PVDF; label: 5'-fluorescein; putative intramolecular G4
# Description: as §5, §2
# [8] = target: T4, Myelin basic protein 18.5 kDa isoform; assay: southwestern blot; 5 uM aptamer, PBS, 1 mM MgCl2; conditions: tags: none; from crude SJL mouse CNS myelin, SDS-PAGE separated and blotted to PVDF; label: 5'-fluorescein; putative intramolecular G4
# Description: as §5, §2
# [9] = target: T1, Proteolipid protein PLP (12.5 kDa band); assay: southwestern blot; conditions: tags: none; from crude SJL mouse CNS myelin, SDS-PAGE separated and blotted to PVDF; label: 5'-fluorescein
# Description: as §5, §2
# [10] = target: T2, Myelin oligodendrocyte glycoprotein MOG …; assay: southwestern blot; conditions: tags: none; from crude SJL mouse CNS myelin, SDS-PAGE separated and blotted to PVDF; label: 5'-fluorescein
# Description: as §5, §2
# [11] = target: T3, Myelin basic protein isoforms …; assay: southwestern blot; conditions: tags: none; from crude SJL mouse CNS myelin, SDS-PAGE separated and blotted to PVDF; label: 5'-fluorescein
# Description: as §5, §2
# [12] = target: T4, Myelin basic protein 18.5 kDa isoform; assay: southwestern blot; conditions: tags: none; from crude SJL mouse CNS myelin, SDS-PAGE separated and blotted to PVDF; label: 5'-fluorescein
# Description: as §5, §2
# T4 sequence (P04370 other isoform, or with tags, fused parts or gaps): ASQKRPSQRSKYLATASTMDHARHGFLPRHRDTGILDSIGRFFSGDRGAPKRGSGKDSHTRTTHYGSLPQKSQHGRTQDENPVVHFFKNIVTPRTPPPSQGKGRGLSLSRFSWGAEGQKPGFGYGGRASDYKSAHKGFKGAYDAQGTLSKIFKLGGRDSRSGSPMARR
# T3 sequence (P04370 other isoform, or with tags, fused parts or gaps): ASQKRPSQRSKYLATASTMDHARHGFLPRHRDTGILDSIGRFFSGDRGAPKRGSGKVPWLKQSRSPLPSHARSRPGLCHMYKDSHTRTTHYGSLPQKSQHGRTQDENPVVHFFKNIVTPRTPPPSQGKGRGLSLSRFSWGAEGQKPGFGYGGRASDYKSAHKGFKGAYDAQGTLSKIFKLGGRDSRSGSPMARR
binder,measurement,setting,value
AAAGAACAAAAAGGATAAAGGGGGAGACGGGGGGAACATGGGG (ssDNA) [3060],binding result,[1],no binding
same,binding result,[2],binds
same,binding result,[3],binds
same,binding result,[4],binds
GGGTCGGCGGGTGGGGTGGGAGGTGGTCTTGTCTCTGGGT (ssDNA) [3064],binding result,[5],binds
same,binding result,[6],binds
same,binding result,[7],binds
same,binding result,[8],binds
TTTTTTTTTTTTTTTTTTTTTTTTTTTTTTTTTTTTTTTT (ssDNA) [3202 (dT40)],binding result,[9],no binding
same,binding result,[10],no binding
same,binding result,[11],no binding
same,binding result,[12],no binding
